Results published in PMC6525511.

Target: RIG-5 (construct not stated; SPR) (C. elegans)
Experiment: SPR

- Kd: 10 µM
Substance: ZIG-8 (purified; construct not stated; SV-AUC and SPR) (from UniProt G5ED00 22-251) (natural protein)
